Reference: patent publication US20160272683A1 (Novo Nordisk, published 2016)
Numbered stars: 1 amine (or outer) side, 2 acyl side, 3 side chain; on linkers, the order of the positions; unused ones are H or OH. Side chains are listed from the residue outwards. Ends that are not written are not given here. * marks the point of attachment. C20 diacid = O=C(O)CCCCCCCCCCCCCCCCCCC(=O)*; γGlu = O=C(O)[C@H](CCC(=O)[*:2])N[*:1]

T1: human amylin 3(a) receptor (human calcitonin receptor co-expressed with RAMP-3) (human, UniProt P30988 25-474; O60896 24-148, limits assumed)
T1 sequence (looked up) 1: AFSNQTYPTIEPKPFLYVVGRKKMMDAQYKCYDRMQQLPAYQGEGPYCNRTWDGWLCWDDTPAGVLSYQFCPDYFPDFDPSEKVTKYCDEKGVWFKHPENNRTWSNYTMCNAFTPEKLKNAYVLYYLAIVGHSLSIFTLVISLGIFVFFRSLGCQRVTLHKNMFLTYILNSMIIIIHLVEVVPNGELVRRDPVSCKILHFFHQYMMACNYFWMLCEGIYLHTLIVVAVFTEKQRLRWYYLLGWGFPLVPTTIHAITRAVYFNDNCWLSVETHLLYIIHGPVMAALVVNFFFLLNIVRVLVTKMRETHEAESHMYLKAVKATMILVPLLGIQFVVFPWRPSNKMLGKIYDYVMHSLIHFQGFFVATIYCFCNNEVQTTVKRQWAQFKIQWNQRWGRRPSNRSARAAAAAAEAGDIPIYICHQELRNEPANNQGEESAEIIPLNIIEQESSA
T1 sequence (looked up) 2: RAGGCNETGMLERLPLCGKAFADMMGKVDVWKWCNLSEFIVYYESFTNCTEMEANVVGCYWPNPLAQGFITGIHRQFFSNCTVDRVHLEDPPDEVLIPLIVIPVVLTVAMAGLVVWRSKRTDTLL

T2: human calcitonin receptor (human, UniProt P30988 25-474)
T2 sequence (looked up): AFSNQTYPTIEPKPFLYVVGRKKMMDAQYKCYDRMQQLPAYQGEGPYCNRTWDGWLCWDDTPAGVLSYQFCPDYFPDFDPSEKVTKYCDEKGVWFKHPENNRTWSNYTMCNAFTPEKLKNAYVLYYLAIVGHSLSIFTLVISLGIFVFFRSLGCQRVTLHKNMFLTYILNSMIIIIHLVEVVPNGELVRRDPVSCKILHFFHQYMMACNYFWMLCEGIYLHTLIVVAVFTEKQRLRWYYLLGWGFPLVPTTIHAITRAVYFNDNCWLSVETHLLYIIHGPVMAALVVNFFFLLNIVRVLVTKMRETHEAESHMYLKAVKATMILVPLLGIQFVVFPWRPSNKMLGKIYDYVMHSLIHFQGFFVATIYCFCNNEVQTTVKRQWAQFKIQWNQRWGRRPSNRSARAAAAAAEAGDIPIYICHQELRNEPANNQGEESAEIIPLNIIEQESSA


Experiments:
[1] = target: T1, human amylin 3(a) receptor (human …); test: cell-based or functional assay
[2] = target: T2, human calcitonin receptor; test: cell-based or functional assay

Binder | hAmylin-R funct. EC50 (pM) [1] [pM] | hCTR funct. EC50 (pM) [2] [pM]
{C20 diacid-γGlu}-EASQLSTAVLGRLSQELHELQTYPRTGTGSGTY-NH2 (SMILES CC(C)C[C@H](NC(=O)[C@H](CCCNC(=N)N)NC(=O)CNC(=O)[C@H](CC(C)C)NC(=O)[C@@H](NC(=O)[C@H](C)NC(=O)[C@@H](NC(=O)[C@H](CO)NC(=O)[C@H](CC(C)C)NC(=O)[C@H](CCC(N)=O)NC(=O)[C@H](CO)NC(=O)[C@H](C)NC(=O)[C@H](CCC(=O)O)NC(=O)CC[C@H](NC(=O)CCCCCCCCCCCCCCCCCCC(=O)O)C(=O)O)[C@@H](C)O)C(C)C)C(=O)N[C@@H](CO)C(=O)N[C@@H](CCC(N)=O)C(=O)N[C@@H](CCC(=O)O)C(=O)N[C@@H](CC(C)C)C(=O)N[C@@H](Cc1c[nH]cn1)C(=O)N[C@@H](CCC(=O)O)C(=O)N[C@@H](CC(C)C)C(=O)N[C@@H](CCC(N)=O)C(=O)N[C@H](C(=O)N[C@@H](Cc1ccc(O)cc1)C(=O)N1CCC[C@H]1C(=O)N[C@@H](CCCNC(=N)N)C(=O)N[C@H](C(=O)NCC(=O)N[C@H](C(=O)NCC(=O)N[C@@H](CO)C(=O)NCC(=O)N[C@H](C(=O)N[C@@H](Cc1ccc(O)cc1)C(N)=O)[C@@H](C)O)[C@@H](C)O)[C@@H](C)O)[C@@H](C)O) [[N-terminal(C20 diacid-gGlu), 4Q, 9V, 15Q, 21Q, 23Y, 27G, 30S, 31G, 32T, 33Y]mimylin] | 66 | 56
{C20 diacid}-ASGLSTAALGRLSQELHELQTYPRTETGSGTY-NH2 (SMILES CC(C)C[C@H](NC(=O)CNC(=O)[C@H](CO)NC(=O)[C@H](C)NC(=O)CCCCCCCCCCCCCCCCCCC(=O)O)C(=O)N[C@@H](CO)C(=O)N[C@H](C(=O)N[C@@H](C)C(=O)N[C@@H](C)C(=O)N[C@@H](CC(C)C)C(=O)NCC(=O)N[C@@H](CCCNC(=N)N)C(=O)N[C@@H](CC(C)C)C(=O)N[C@@H](CO)C(=O)N[C@@H](CCC(N)=O)C(=O)N[C@@H](CCC(=O)O)C(=O)N[C@@H](CC(C)C)C(=O)N[C@@H](Cc1c[nH]cn1)C(=O)N[C@@H](CCC(=O)O)C(=O)N[C@@H](CC(C)C)C(=O)N[C@@H](CCC(N)=O)C(=O)N[C@H](C(=O)N[C@@H](Cc1ccc(O)cc1)C(=O)N1CCC[C@H]1C(=O)N[C@@H](CCCNC(=N)N)C(=O)N[C@H](C(=O)N[C@@H](CCC(=O)O)C(=O)N[C@H](C(=O)NCC(=O)N[C@@H](CO)C(=O)NCC(=O)N[C@H](C(=O)N[C@@H](Cc1ccc(O)cc1)C(N)=O)[C@@H](C)O)[C@@H](C)O)[C@@H](C)O)[C@@H](C)O)[C@@H](C)O) [[N-terminal(C20 diacid), des1, 4G, 15Q, 21Q, 23Y, 30S, 31G, 32T, 33Y]mimylin] | 22 | 24
{C20 diacid-γGlu}-ASGLSTAALGRLSEELHELQTYPRTETGSGTY-NH2 (SMILES CC(C)C[C@H](NC(=O)CNC(=O)[C@H](CO)NC(=O)[C@H](C)NC(=O)CC[C@H](NC(=O)CCCCCCCCCCCCCCCCCCC(=O)O)C(=O)O)C(=O)N[C@@H](CO)C(=O)N[C@H](C(=O)N[C@@H](C)C(=O)N[C@@H](C)C(=O)N[C@@H](CC(C)C)C(=O)NCC(=O)N[C@@H](CCCNC(=N)N)C(=O)N[C@@H](CC(C)C)C(=O)N[C@@H](CO)C(=O)N[C@@H](CCC(=O)O)C(=O)N[C@@H](CCC(=O)O)C(=O)N[C@@H](CC(C)C)C(=O)N[C@@H](Cc1c[nH]cn1)C(=O)N[C@@H](CCC(=O)O)C(=O)N[C@@H](CC(C)C)C(=O)N[C@@H](CCC(N)=O)C(=O)N[C@H](C(=O)N[C@@H](Cc1ccc(O)cc1)C(=O)N1CCC[C@H]1C(=O)N[C@@H](CCCNC(=N)N)C(=O)N[C@H](C(=O)N[C@@H](CCC(=O)O)C(=O)N[C@H](C(=O)NCC(=O)N[C@@H](CO)C(=O)NCC(=O)N[C@H](C(=O)N[C@@H](Cc1ccc(O)cc1)C(N)=O)[C@@H](C)O)[C@@H](C)O)[C@@H](C)O)[C@@H](C)O)[C@@H](C)O) [[N-terminal(C20 diacid-gGlu), des1, 4G, 15E, 21Q, 23Y, 30S, 31G, 32T, 33Y]mimylin] | 36 | 21
{C20 diacid-γGlu}-ASGLSTAALGRLSQELHELQTYPRTETGSQTY-NH2 (SMILES CC(C)C[C@H](NC(=O)CNC(=O)[C@H](CO)NC(=O)[C@H](C)NC(=O)CC[C@H](NC(=O)CCCCCCCCCCCCCCCCCCC(=O)O)C(=O)O)C(=O)N[C@@H](CO)C(=O)N[C@H](C(=O)N[C@@H](C)C(=O)N[C@@H](C)C(=O)N[C@@H](CC(C)C)C(=O)NCC(=O)N[C@@H](CCCNC(=N)N)C(=O)N[C@@H](CC(C)C)C(=O)N[C@@H](CO)C(=O)N[C@@H](CCC(N)=O)C(=O)N[C@@H](CCC(=O)O)C(=O)N[C@@H](CC(C)C)C(=O)N[C@@H](Cc1c[nH]cn1)C(=O)N[C@@H](CCC(=O)O)C(=O)N[C@@H](CC(C)C)C(=O)N[C@@H](CCC(N)=O)C(=O)N[C@H](C(=O)N[C@@H](Cc1ccc(O)cc1)C(=O)N1CCC[C@H]1C(=O)N[C@@H](CCCNC(=N)N)C(=O)N[C@H](C(=O)N[C@@H](CCC(=O)O)C(=O)N[C@H](C(=O)NCC(=O)N[C@@H](CO)C(=O)N[C@@H](CCC(N)=O)C(=O)N[C@H](C(=O)N[C@@H](Cc1ccc(O)cc1)C(N)=O)[C@@H](C)O)[C@@H](C)O)[C@@H](C)O)[C@@H](C)O)[C@@H](C)O) [[N-terminal(C20 diacid-gGlu), des1, 4G, 15Q, 21Q, 23Y, 30S, 31Q, 32T, 33Y]mimylin] | 37 | 25

More lines, now with the values ahead:

hAmylin-R funct. EC50 (pM) [1] [pM] | hCTR funct. EC50 (pM) [2] [pM] | Binder
68 | 36 | ASGLSTAALGRLSQELHELQTYPRTETGSK([γGlu-C20 diacid])TY-NH2 (N-terminus assumed; SMILES CC(C)C[C@H](NC(=O)CNC(=O)[C@H](CO)NC(=O)[C@H](C)N)C(=O)N[C@@H](CO)C(=O)N[C@H](C(=O)N[C@@H](C)C(=O)N[C@@H](C)C(=O)N[C@@H](CC(C)C)C(=O)NCC(=O)N[C@@H](CCCNC(=N)N)C(=O)N[C@@H](CC(C)C)C(=O)N[C@@H](CO)C(=O)N[C@@H](CCC(N)=O)C(=O)N[C@@H](CCC(=O)O)C(=O)N[C@@H](CC(C)C)C(=O)N[C@@H](Cc1c[nH]cn1)C(=O)N[C@@H](CCC(=O)O)C(=O)N[C@@H](CC(C)C)C(=O)N[C@@H](CCC(N)=O)C(=O)N[C@H](C(=O)N[C@@H](Cc1ccc(O)cc1)C(=O)N1CCC[C@H]1C(=O)N[C@@H](CCCNC(=N)N)C(=O)N[C@H](C(=O)N[C@@H](CCC(=O)O)C(=O)N[C@H](C(=O)NCC(=O)N[C@@H](CO)C(=O)N[C@@H](CCCCNC(=O)CC[C@H](NC(=O)CCCCCCCCCCCCCCCCCCC(=O)O)C(=O)O)C(=O)N[C@H](C(=O)N[C@@H](Cc1ccc(O)cc1)C(N)=O)[C@@H](C)O)[C@@H](C)O)[C@@H](C)O)[C@@H](C)O)[C@@H](C)O) [[des1, 4G, 15Q, 21Q, 23Y, 30S, 31K(C20 diacid-gGlu), 32T, 33Y]mimylin]
54 | 18 | {C20 diacid-γGlu}-ASGLSTAALGRLSTELHELETYPRTETGSGTY-NH2 (SMILES CC(C)C[C@H](NC(=O)CNC(=O)[C@H](CO)NC(=O)[C@H](C)NC(=O)CC[C@H](NC(=O)CCCCCCCCCCCCCCCCCCC(=O)O)C(=O)O)C(=O)N[C@@H](CO)C(=O)N[C@H](C(=O)N[C@@H](C)C(=O)N[C@@H](C)C(=O)N[C@@H](CC(C)C)C(=O)NCC(=O)N[C@@H](CCCNC(=N)N)C(=O)N[C@@H](CC(C)C)C(=O)N[C@@H](CO)C(=O)N[C@H](C(=O)N[C@@H](CCC(=O)O)C(=O)N[C@@H](CC(C)C)C(=O)N[C@@H](Cc1c[nH]cn1)C(=O)N[C@@H](CCC(=O)O)C(=O)N[C@@H](CC(C)C)C(=O)N[C@@H](CCC(=O)O)C(=O)N[C@H](C(=O)N[C@@H](Cc1ccc(O)cc1)C(=O)N1CCC[C@H]1C(=O)N[C@@H](CCCNC(=N)N)C(=O)N[C@H](C(=O)N[C@@H](CCC(=O)O)C(=O)N[C@H](C(=O)NCC(=O)N[C@@H](CO)C(=O)NCC(=O)N[C@H](C(=O)N[C@@H](Cc1ccc(O)cc1)C(N)=O)[C@@H](C)O)[C@@H](C)O)[C@@H](C)O)[C@@H](C)O)[C@@H](C)O)[C@@H](C)O) [[N-terminal(C20 diacid-gGlu), des1, 4G, 15T, 21E, 23Y, 30S, 31G, 32T, 33Y]mimylin]
76 | 60 | {C20 diacid-γGlu}-ASELSTAVLGRLSQELHELQTYPRTETGSGTY-NH2 (SMILES CC(C)C[C@H](NC(=O)[C@H](CCCNC(=N)N)NC(=O)CNC(=O)[C@H](CC(C)C)NC(=O)[C@@H](NC(=O)[C@H](C)NC(=O)[C@@H](NC(=O)[C@H](CO)NC(=O)[C@H](CC(C)C)NC(=O)[C@H](CCC(=O)O)NC(=O)[C@H](CO)NC(=O)[C@H](C)NC(=O)CC[C@H](NC(=O)CCCCCCCCCCCCCCCCCCC(=O)O)C(=O)O)[C@@H](C)O)C(C)C)C(=O)N[C@@H](CO)C(=O)N[C@@H](CCC(N)=O)C(=O)N[C@@H](CCC(=O)O)C(=O)N[C@@H](CC(C)C)C(=O)N[C@@H](Cc1c[nH]cn1)C(=O)N[C@@H](CCC(=O)O)C(=O)N[C@@H](CC(C)C)C(=O)N[C@@H](CCC(N)=O)C(=O)N[C@H](C(=O)N[C@@H](Cc1ccc(O)cc1)C(=O)N1CCC[C@H]1C(=O)N[C@@H](CCCNC(=N)N)C(=O)N[C@H](C(=O)N[C@@H](CCC(=O)O)C(=O)N[C@H](C(=O)NCC(=O)N[C@@H](CO)C(=O)NCC(=O)N[C@H](C(=O)N[C@@H](Cc1ccc(O)cc1)C(N)=O)[C@@H](C)O)[C@@H](C)O)[C@@H](C)O)[C@@H](C)O) [[N-terminal(C20 diacid-gGlu), des1, 9V, 15Q, 21Q, 23Y, 30S, 31G, 32T, 33Y]mimylin]
